Measurements from US20140377289A1, “Metallodrugs Having Improved Pharmacological Properties, and Methods of Manufacture and Use Thereof” (MetalloPharm, LLC, priority 2011, published 2014).
Where no end group is shown, it is not given here.

Tests used:
[1] = target: HCV protease (hepatitis C virus (HCV)); experiment: affinity of metallopeptide for HCV protease; method not described
[2] = target: Recombinant human somatic ACE (sACE-1: Leu30-Leu1261, with C-terminal His tag) (human) (UniProt P12821); experiment: cell-based or functional assay
Recombinant human somatic ACE (sACE-1: Leu30-Leu1261, with C-terminal His tag) (human), sequence (P12821 30-1261 limits assumed): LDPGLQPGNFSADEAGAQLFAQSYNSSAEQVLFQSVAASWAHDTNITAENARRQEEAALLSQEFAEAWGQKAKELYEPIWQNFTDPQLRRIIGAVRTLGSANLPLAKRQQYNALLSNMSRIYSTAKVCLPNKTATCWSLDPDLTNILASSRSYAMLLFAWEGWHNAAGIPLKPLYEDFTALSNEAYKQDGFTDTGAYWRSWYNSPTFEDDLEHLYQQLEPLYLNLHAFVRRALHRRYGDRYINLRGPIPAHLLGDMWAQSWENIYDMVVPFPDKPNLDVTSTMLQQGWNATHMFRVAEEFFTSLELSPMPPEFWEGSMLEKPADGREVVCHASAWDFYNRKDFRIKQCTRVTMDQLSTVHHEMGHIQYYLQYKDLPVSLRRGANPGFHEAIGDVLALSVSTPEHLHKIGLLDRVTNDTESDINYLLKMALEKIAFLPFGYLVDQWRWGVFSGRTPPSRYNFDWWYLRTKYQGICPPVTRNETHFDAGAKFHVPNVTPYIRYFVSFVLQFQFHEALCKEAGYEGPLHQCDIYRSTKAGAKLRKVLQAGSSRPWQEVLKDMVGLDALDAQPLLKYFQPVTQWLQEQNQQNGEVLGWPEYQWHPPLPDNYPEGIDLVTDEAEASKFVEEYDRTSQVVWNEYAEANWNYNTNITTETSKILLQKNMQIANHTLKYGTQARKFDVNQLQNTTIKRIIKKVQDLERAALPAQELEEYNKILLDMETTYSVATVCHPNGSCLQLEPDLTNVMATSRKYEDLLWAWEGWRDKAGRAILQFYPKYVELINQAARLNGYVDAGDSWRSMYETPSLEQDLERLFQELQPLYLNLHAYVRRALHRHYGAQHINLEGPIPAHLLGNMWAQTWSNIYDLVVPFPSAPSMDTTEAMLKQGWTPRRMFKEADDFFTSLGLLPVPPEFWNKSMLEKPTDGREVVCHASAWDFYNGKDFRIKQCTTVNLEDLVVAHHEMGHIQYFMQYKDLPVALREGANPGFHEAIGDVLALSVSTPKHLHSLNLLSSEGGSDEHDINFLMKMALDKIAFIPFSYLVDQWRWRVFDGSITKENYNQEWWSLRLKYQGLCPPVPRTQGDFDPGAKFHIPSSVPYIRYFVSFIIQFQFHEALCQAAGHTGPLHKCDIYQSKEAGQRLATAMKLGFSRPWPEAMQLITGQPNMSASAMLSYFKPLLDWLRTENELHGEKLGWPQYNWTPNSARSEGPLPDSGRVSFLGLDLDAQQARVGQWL

[3] = target: Recombinant human somatic ACE (sACE-1: Leu30-Leu1261, with C-terminal His tag) (human) (UniProt P12821); experiment: affinity calculated from the IC50 of sACE-1 inhibition (fluorogenic substrate cleavage, 37 C, pH 7.4)

IC50's (nM) for sACE-1 inhibition (fluorogenic substrate cleavage) [2]	Ka [3]	Substance	affinity [1]
–	–	GGHDEMEEC	48 µM
17000 nM	59000 M⁻¹	[Cu-GGH]^1- (peptide)	–
